T1: VEGF (Homo sapiens, UniProt P15692)
T1 construct: purchased R&D Systems
T1 sequence (P15692 27-191 isoform P15692-4): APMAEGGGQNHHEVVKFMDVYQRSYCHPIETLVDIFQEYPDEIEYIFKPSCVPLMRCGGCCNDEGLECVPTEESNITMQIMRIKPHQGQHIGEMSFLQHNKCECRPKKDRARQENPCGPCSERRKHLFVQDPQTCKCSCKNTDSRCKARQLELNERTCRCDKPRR

B1: h3t33fc: IGFBP3 with IGFBP3 linker deletion 1-Fc, SEQ ID NO: 8 (protein)
chain: MSEVPVARVWLVLLLLTVQVGVTAGGASSAGLGPVVRCEPCDARALAQCAPPPAVCAELVREPGCGCCLTCALSEGQPCGIYTERCGSGLRCQPSPDEARPLQALLDGRGLCVNASAVSKGHAKDSQRYKVDYESQSTDTQNFSSESKRETEYGPCRREMEDTLNHLKFLNVLSPRGVHIPNCDKKGFYKKKQCRPSKGRKRGFCWCVDKYGQPLPGYTTKGKEDVHCYSMQSKVECPPCPAPPVAGPSVFLFPPKPKDQLMISRTPEVTCVVVDVSHEDPEVKFNWYVDGVEVHNAKTKPREEQYNSTYRVVSVLTVLHQDWLNGKEYKCKVSNKGLPSSIEKTISKAKGQPREPQVYTLPPSREEMTKNQVSLTCLVKGFYPSDIAVEWESNGQPENNYKTTPPVLDSDGSFFLYSKLTVDKSRWQQGNVFSCSVMHEGLHNHYTQKSLSLSPGK

Tests used:
fibroblasts = assay: Proliferation induced by PDGF BB in fibroblasts (Table 8); type: cell-based
Procedure: (§1) For the proliferation assay, cells except for HUVEC were seeded at a density of 1,000 to 6,000 in 96 wells in an assay buffer of DMEM/F12 plus 0.2% BSA and 10 ug/ml transferrin. Chemical inhibitors were added after 16-20 hours after plating; IGF-1 or other growth factors or test chimeras in assay buffer were added at the time of plating or 16-20 hours after plating. 5,000 HUVEC ells were plated in poly-L-lysine coated 96 wells in M199 with 1%/FBS and HEPES. After 3 to 4 days of culture, growth was determined by incubating cells with Alamar blue for 4 to 6 hours and then the fluorescence (RFU) at 544/590 nm was read. For long term proliferation assays, cells were plated in the growth media with 5% or 10% FBS at densities of 500 to 10,000 cells per cm^2 growth area and grown for 7 to 21 days. Inhibitors and effectors were added 1-4 days after plating. Cells were exposed to cisplatin or gemcitabine for two days. Medium was renewed twice weekly. At completion, cells were fixed and then stained with Giemsa.
(§2) The BP3-fc construct inhibited the proliferation of cancer cells that had been stimulated by IGF-1, IGF-2, neuregulin, HGF, and bFGF.

cancer cells = assay: In vitro proliferation of cancer cells stimulated by growth factors (Table 8); type: cell-based
Procedure: as §1, §2

VEGF [1] = target: T1, VEGF; assay: In vitro proliferation stimulated by VEGF (Table 8); type: cell-based
Procedure: as §1
The BP3-VEGF-trap-fc (including the IGFBP3 domains, the VEGFR1 domain 2 and VEGFR2 domain 3 (VEGF-trap (22)), and human immunoglobulin Fc region) broadened the binding to include VEGF-A, VEGF-B, and placental growth factor (PIGF). This BP3-VEGF-trap chimera could inhibit the proliferation stimulated by IGF-1, IGF-2, neuregulin, PDGF-BB, HGF, bFGF, VEGF-A, and PIGF (see, Table 8).

TGF-α = target: T2, TGF-α (Homo sapiens, UniProt P01135); assay: Biacore binding to TGF-α; conditions: Table 5
T2 construct: purchased R&D Sciences or SinoBiologicals
T2 sequence (P01135 40-89 limits assumed): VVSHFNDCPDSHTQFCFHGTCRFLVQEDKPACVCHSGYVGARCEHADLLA
Procedure: (§3) Biacore binding was performed at David Myszka's laboratory at the University of Utah or at the Genomic Research Center at Academia Sinica. Surfaces of binding protein chimera were made via chemical immobilization on a CM4 chip using standard amine coupling chemistry. […] Excess surface carboxyl activated sites on all four flow cells was blocked using the doubly positively charged species ethylenediamine. Binding experiments (but not immobilizations) in HBS-P (10 mM HEPES pH 7.4, 150 mM NaCl, 0.05% P20), The HBS-P was supplemented with BSA at 0.2 mg/mL, or HBS-P was supplemented with 500 mM NaCl (650 mM NaCl, final concentration). Analytes were also reconstituted in the corresponding buffer. All experiments were performed at 25° C. 1/150 dilutions of phosphoric acid were used to regenerate IGFBP3-Fc surfaces and a sequence of 3 M MgCl2 followed by 5 M GuCl was used to regenerate surfaces immobilized with growth factor. Dissociation constants reported below used immobilized binding protein unless noted. Differences between binding constants may be expected between growth factor immobilization and chimera immobilization.

hep3B cells = assay: hep3B proliferation assay; type: cell-based, human
Procedure, shortened: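 Cells seeded at 1,000 to 6,000 per well in DMEM/F12 with 0.2% BSA and 10 ug/ml transferrin. Inhibitors added 16-20 h after plating; IGF-1 or other growth factors at plating or 16-20 h later. After 3 to 4 days, growth read by Alamar blue fluorescence at 544/590 nm after 4 to 6 h.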

HUVEC cells = assay: HUVEC proliferation assay; type: cell-based
Procedure: (§4) MCF-7 cells (a breast cancer cell line) were maintained in MEM (GIBCO) plus insulin and NEAA and 10% FBS (Hyclone).
as §1
Growth factor synergism can also be observed in the proliferation of HUVEC cells.

VEGF [2] = target: T1, VEGF; assay: Biacore binding to VEGF; conditions: Table 5; the kd is very low and difficult to measure
Procedure: as §3

[3] = tested on: MCF-7 breast cancer cells; assay: MCF-7 proliferation assay; type: cell-based; conditions: FIG. 5
Procedure: as §4, §1
We next examined the effect of 56662 (BP3/Fc) on the proliferation induced by growth factors that interacted with the IGFBP3. The proliferation of MCF-7 breast cancer cells was induced in serum-free medium by individual growth factors like IGF-1, IGF-2, EGF, TGF-a, Nrgbx, b-FGF, and amphiregulin (FIG. 1).

Molecule	inhibition of proliferation stimulated by PDGF BB (fibroblasts)	inhibition of proliferation stimulated by HGF (cancer cells)	inhibition of proliferation stimulated by IGF-1 (cancer cells)	inhibition of proliferation stimulated by IGF-2 (cancer cells)	inhibition of proliferation stimulated by bFGF (cancer cells)	inhibition of proliferation stimulated by nrgbx (cancer cells)	inhibition of proliferation stimulated by VEGF (VEGF [1])	Dissociation Constants, TGF-α (TGF-α)	increase of inhibitory activity of erlotinib (hep3B cells; 100 nM chimera h3t33Fc, hep3B)	inhibition of hep3B cells treated with erlotinib (hep3B cells; combination with erlotinib, FIG. 15, FIG. 16A)	inhibition of VEGF-induced proliferation of HUVEC cells (HUVEC cells; FIG. 6, FIG. 13)	inhibition of HUVEC proliferation induced by IGF, bFGF, HGF or a combination (HUVEC cells; FIG. 13)	Dissociation Constants, VEGF (VEGF [2])	inhibition of IGF-1-induced proliferation of MCF-7, compared to 56662 and chimera B [3]
VEGF-trap: the VEGFR1 domain 2 and VEGFR2 domain 3 (VEGF-trap (22)) [reference compound]	no	no	no	no	no	no	inh							
B1								no binding	about 100 fold	synergistically inhibited	did not inhibit	inhibited	no binding	a smaller EC50 and a higher maximal inhibition
